Data from US20050276757.

Tested on: p120 catenin expressed from a transfected plasmid (exogenous p120, HA-tagged in Example 1)

ZC1 kinase, over-expressed from a plasmid (active full-length ZC1)
in vitro phosphorylation (32P-ATP, autoradiography): p120 immunoprecipitated from cells co-expressing ZC1 also showed phosphorylation of p120 in vitro by associated ZC1
